The values that follow come from the supplement of paper PMC12764529.

Data set [1] is described as follows: folding stability dG unfold from chymotrypsin proteolysis; higher = more stable. In outline:
(§1)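 How resistant each design was to proteolysis was captured as K50, inferred by Bayesian fitting of sequencing counts. Unfolding free energy was then derived relative to a sequence-predicted unfolded-state K50 and a shared folded-state K50, per protease or combined. Digestion used trypsin and chymotrypsin at 11 threefold-diluted concentrations plus a no-protease condition, on mini-proteins under 80 residues without cysteine in a PA-tagged cDNA display construct. Designs were kept only when AlphaFold2 dimer inter-PAE was above 15.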

The nature of data set [2]: folding stability dG unfold (combined trypsin and chymotrypsin); higher = more stable. In short, it runs like this: as §1
Data set [3] is described as follows: folding stability dG unfold from trypsin proteolysis; higher = more stable. In short, it runs like this: as §1

± gives the half width of the 95% confidence interval.

For “SAGGSAGGSPSVLDQVKRMIQDRIQERFGLPPGYTVQVTIDVEIDDGGIRIKKIKAEIQPPDNSAGGSAGGS [r12_481_TrROS]”, the “folding stability dG unfold” value in data set [1] worked out at 2.42 ± 0.054 kcal/mol; in data set [2] it was 2.37 ± 0.17 kcal/mol; in data set [3] it was 2.12 ± 0.095 kcal/mol.

Take “SAGGSAGGSPTYTIDVEKYPDGYYFLKIWMPGHNRKIEHPIPPDNPDKIDEITITPNGKIKIDSAGGSAGGS [r20_11_TrROS]”: the “folding stability dG unfold” value in data set [1] is 0.309 ± 0.24 kcal/mol; in data set [2] it was 0.263 ± 0.17 kcal/mol; in data set [3], 0.161 ± 0.13 kcal/mol.

Turning to “SAGGSAGGSPVFESPEQAKAFLDNVPADSTVLIAVKNPETGEWQLFVVKVPPKRPVGYPGDKDSAGGSAGGS [r12_393_TrMRF]”, the “folding stability dG unfold” value was determined as 1.79 ± 0.072 kcal/mol in data set [1], 1.56 ± 0.085 kcal/mol in data set [2] and 1.08 ± 0.065 kcal/mol in data set [3].

In the case of “SAGGSAGGSPVIAVRVKRIEVTYDAATGRLTVRIEVEVDGKTYTITVPPGAEIKPGDTLLIEPSAGGSAGGS [r20_49_TrROS_Hall]”, the entries for the “folding stability dG unfold” value in data set [1], in data set [2] and in data set [3] were 4.434 ± 0.038 kcal/mol, 4.375 ± 0.041 kcal/mol and 4.23 ± 0.098 kcal/mol, respectively.

Consider “SAGGSAGGSPVVTVENVTRPSDYYTYTFKLPDGTVITLDAKSEEEAREKAKELGLENLNFKTEESAGGSAGG [r6_601_JUSTAS]”, for which the “folding stability dG unfold” value was 3.88 ± 0.13 kcal/mol in data set [1], 3.8 ± 0.14 kcal/mol in data set [2] and 3.15 ± 0.19 kcal/mol in data set [3].

As to “SAGGSAGGSPYTIMYPIPGDTVEEVKDIAKEIMEHFPNFKITVSVEPPKDGQYWVTIELEMPDSAGGSAGGS [r12_425_TrROS]”, the “folding stability dG unfold” value was found to be 2.23 ± 0.049 kcal/mol in data set [1], 2.09 ± 0.15 kcal/mol in data set [2] and 1.87 ± 0.11 kcal/mol in data set [3].

Regarding “SAGGSAGGSRIIFRIPPEFRENMPIEEIVEEFLPPGMPVEIEWERTPDPWYVTVDIEIPPGQLSAGGSAGGS [r12_716_TrROS]”, the “folding stability dG unfold” value in data set [1] turned out to be 0.325 ± 0.33 kcal/mol; in data set [2] it was 0.334 ± 0.27 kcal/mol; in data set [3] it was 0.364 ± 0.16 kcal/mol.

On to “SAGGSAGGSRKTILFRFPDGMMIKISLEENPNGNKRVRVTVYNPDNGKKRRMPADELPPNAKISAGGSAGGS [r12_797_TrROS]”, for which the “folding stability dG unfold” value in data set [1] came to 3.13 ± 0.09 kcal/mol; in data set [2] it was 2.64 ± 0.15 kcal/mol; in data set [3], 1.14 ± 0.079 kcal/mol.

As for “SAGGSAGGSRLGLEEFERIAREIAEELGISDLVAEVEELEDDYALLTIYNPETGEKLEILVPGSAGGSAGGS [r12_1000_TrMRF]”, the results for the “folding stability dG unfold” value in data set [1], in data set [2] and in data set [3] were 0.898 ± 0.025 kcal/mol, 1.07 ± 0.09 kcal/mol and 1.13 ± 0.053 kcal/mol, respectively.

As for “SAGGSAGGSSAPPGEVRTEAVSLTVRSTVPITYPNSPTTTLSLTTTLTVTLTREVSPVRPEVESAGGSAGGS [r20_14_JUSTAS]”, the “folding stability dG unfold” value in data set [1] was 3.84 ± 0.085 kcal/mol; in data set [2], 3.34 ± 0.22 kcal/mol; in data set [3], 2.88 ± 0.21 kcal/mol.

Turning to “SAGGSAGGSSIGRTEYIPEENLIVREEPETGLTIITKKPPNGPNIVYTIEPETGEKTVEESLISAGGSAGGS [r12_55_JUSTAS]”, the entries for the “folding stability dG unfold” value in data set [1], in data set [2] and in data set [3] were -0.0944 ± 0.22 kcal/mol, 0.292 ± 0.2 kcal/mol and 0.445 ± 0.067 kcal/mol, respectively.

With “SAGGSAGGSSLLVLRELADGGVALHLIDVEPDEPVGVETVLDEFRELHPDTPPLPVLILRPDPSAGGSAGGS [r12_262_TrMRF]”, the “folding stability dG unfold” value was -0.127 ± 0.14 kcal/mol in data set [1], 0.115 ± 0.073 kcal/mol in data set [2] and 0.251 ± 0.031 kcal/mol in data set [3].

On to “SAGGSAGGSSMKVEVTVEPVDPARGLYRVTITLYDPNSDTPLKTVPVLAESPEEIEAAILELLSAGGSAGGS [r12_26_JUSTAS]”, for which the figures for the “folding stability dG unfold” value in data set [1], in data set [2] and in data set [3] were 2.91 ± 0.05 kcal/mol, 2.67 ± 0.12 kcal/mol and 2.55 ± 0.11 kcal/mol, respectively.

With “SAGGSAGGSSMLTITKTYTLPPEEIKKIEGKPGVLKVEPFVTPEGKLVVKVEIRLEIGPEKLLLSAGGSAGG [r6_155_JUSTAS]”, the figures for the “folding stability dG unfold” value in data set [1], in data set [2] and in data set [3] were 1.11 ± 0.22 kcal/mol, 0.914 ± 0.11 kcal/mol and 0.738 ± 0.11 kcal/mol, respectively.

As for “SAGGSAGGSSMPFLNPDGHPAVLVEVDGSTGSLSVELRGPDGRPVLQVSVSVSGPATVTVRVGSAGGSAGGS [r12_960_JUSTAS]”, the “folding stability dG unfold” value in data set [1] came to 2.56 ± 0.086 kcal/mol; in data set [2], 2.61 ± 0.079 kcal/mol; in data set [3], 2.75 ± 0.11 kcal/mol.

For the sequence “SAGGSAGGSSMSSTVEKEPDDVLIISTKVFFDTDTYSTLTTIVEVKPPLDPSNPELLARALGLLSAGGSAGG [r6_293_JUSTAS]”, the figures for the “folding stability dG unfold” value in data set [1], in data set [2] and in data set [3] were 1.49 ± 0.039 kcal/mol, 1.3 ± 0.063 kcal/mol and 1.1 ± 0.026 kcal/mol, respectively.

For the sequence “SAGGSAGGSSPDWSVKKSTVTVTITFPEEKYFEPETKKEVAKRPVITIEIEIEVVETLPASLISAGGSAGGS [r12_600_JUSTAS]”, the entries for the “folding stability dG unfold” value in data set [1], in data set [2] and in data set [3] were 1.44 ± 0.096 kcal/mol, 1.63 ± 0.19 kcal/mol and 1.65 ± 0.067 kcal/mol, respectively.

For the sequence “SAGGSAGGSSPPLEILDPVSATLPDGGTLTVAKAAGSYYLVTTTTYDPATGTATSTTTVVPLESAGGSAGGS [r20_15_JUSTAS]”, the entries for the “folding stability dG unfold” value in data set [1], in data set [2] and in data set [3] were 0.827 ± 0.076 kcal/mol, 0.528 ± 0.065 kcal/mol and 0.0164 ± 0.088 kcal/mol, respectively.

As for “SAGGSAGGSSPSTSSERRIELPGGEEAEVFFYPSSGKILVRFPDREVEYYVEDDGKIVKKDPLSAGGSAGGS [r12_47_JUSTAS]”, the “folding stability dG unfold” value in data set [1] stood at 0.0525 ± 0.21 kcal/mol; in data set [2] it was 0.315 ± 0.13 kcal/mol; in data set [3] it was 0.478 ± 0.063 kcal/mol.

With “SAGGSAGGSSSATLAADETATLRFRVTLTFGSGVRSGTADLSGSVSATVEVDVEIEVRNLADDSAGGSAGGS [r12_668_TrMRF]”, the figures for the “folding stability dG unfold” value in data set [1], in data set [2] and in data set [3] were 4.62 ± 0.082 kcal/mol, 4.24 ± 0.07 kcal/mol and 3.32 ± 0.056 kcal/mol, respectively.

Turning to “SAGGSAGGSSSMVVIEKEFPDLTPEEVEKLAKEIEEKNPELGKVEVKFKPKKKPKPPLTPEAKKSAGGSAGG [r6_825_JUSTAS]”, the “folding stability dG unfold” value in data set [1] was 1.29 ± 0.036 kcal/mol; in data set [2], 0.878 ± 0.11 kcal/mol; in data set [3], -0.672 ± 0.21 kcal/mol.

In the case of “SAGGSAGGSSVSVSFPSSVTKVEPELNDPNLTTFFESPGLVIKVTVVPGTGKVIIEKKPLSELSAGGSAGGS [r12_858_JUSTAS]”, the “folding stability dG unfold” value in data set [1] was -0.663 ± 0.13 kcal/mol; in data set [2] it was 0.342 ± 0.053 kcal/mol; in data set [3], 0.858 ± 0.023 kcal/mol.

Consider “SAGGSAGGSSVTRLIYLEDGTVLVVKLTPKPLVLPDGKPAFVLGFEVVEIRPVKDPKEALKALSAGGSAGGS [r12_915_TrMRF]”, for which the “folding stability dG unfold” value in data set [1] is 1.3 ± 0.081 kcal/mol; in data set [2], 1.61 ± 0.071 kcal/mol; in data set [3], 1.81 ± 0.039 kcal/mol.

As for “SAGGSAGGSSYTTSTATDPNADVTTTTTTYPDSIVTPVWDPRTGKVVETVTTTPDGTTTTVAASAGGSAGGS [r12_563_JUSTAS]”, the “folding stability dG unfold” value came out at 0.0262 ± 0.17 kcal/mol in data set [1], 0.289 ± 0.14 kcal/mol in data set [2] and 0.543 ± 0.068 kcal/mol in data set [3].

In the case of “SAGGSAGGSTALVYKNGVTVTFPVFFPDTAPAVVTLSIPSPEEAAAAVAALRAAGHAVTVEPLASAGGSAGG [r6_872_JUSTAS]”, the “folding stability dG unfold” value in data set [1] is 1.48 ± 0.048 kcal/mol; in data set [2], 1.29 ± 0.031 kcal/mol; in data set [3], 0.96 ± 0.012 kcal/mol.

As for “SAGGSAGGSTIMFKVDSPDELIDKIKIPPGFRVEIMQTPDRYYVMIRPPPSPEQMAKREKNNGSAGGSAGGS [r12_274_TrROS]”, the “folding stability dG unfold” value came out at 3.16 ± 0.23 kcal/mol in data set [1], 3.26 ± 0.41 kcal/mol in data set [2] and 3.35 ± 0.42 kcal/mol in data set [3].
